The values that follow are results of earlier work, collected in patent US7754242B2, “Inhalable sustained therapeutic formulations” (Alkermes, Inc., priority 2002, dated 2010).

Read-outs that look alike come from different tables or passages of the source.

For data set [1] the following is noted: healthy volunteers; inhaled.
The conditions of data set [2]: primates; dry powder formulation via pulmonary delivery.
For data set [3] the following is noted: human subjects; dry powder formulation via pulmonary delivery.

Take “insulin: Insulin given by pulmonary delivery (dry powder formulation, inhaled), literature reports”: the “Time to half-maximal action (glucose infusion rate)” value in data set [1] was “about 30 minutes”. In addition, the “Time to peak insulin level” value in data set [2] was “about 30 minutes”; in data set [3], “about 20 minutes”.
